Experimental data as given in the supplement of paper PMC9170038.

Test system: MS2 coat protein
Experiment: apparent KD of MS2 coat protein; higher = weaker reporter binding
Settings: Eterna round: R107; input ligand: arginine 13.2 mM
Procedure, shortened: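 Apparent KD was obtained for each design as the median of normalised binding-curve fits over its clusters. RNA switches transcribed on-chip from Illumina sequencing clusters were titrated with SNAP-549-labelled MS2 coat protein (twofold steps, 0.7 or 1.5 nM to 3 µM) in 100 mM Tris-HCl pH 7.5, 80 mM KCl, 4 mM MgCl2, without or with constant ligand.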

| Sequence | apparent KD of MS2 coat protein [nM] |
| --- | --- |
| GAUGAACUAUUUGAUACCAGACUACAUGAGGAUCACCCAUGUGAGUUUAUACUUCAGUCAGUCCCUUGGCAGCAAAUAGUUUAUC [XTheo B #6] | 38.3 |
| AAAAUCCUACCUGAGGAUCACCCUGGUGAAGGAGCGCCCGAAAGGGCAGGUAGGUCGCACCUGAGGAUCACCCAGGUAACCUAAA [ArgEX 13 #DoubleMS2 #OpenEnded #AlternativeMS2] | 31.7 |
| GGCCUGUGGAGCGAUACCAGCUUGAGUGUACUGGCCAGGUACAUGAGGAUCACCCAUGUAAGCCCUUGGCAGCGCUCCAGAGGCC [#1 Exclusion - Theophylline B Attempt #18 (HarryS)] | 9.41 |

Same assay, conditions: Eterna round: R107; input ligand: none

| Sequence | apparent KD of MS2 coat protein [nM] |
| --- | --- |
| ACGCCCAGGUAGGCUUAAUGGGAAAUGGAAGGAGCGCUGAUGCAAGCAGGUAGGUCGCCAACGAACAUGAGGAUCACCCAUGUAA [Same State - Arginine A (Freestyle 2)] | 22.3 |
| AACACGGUGAUGGUAGCCGGACGCUAGGUACGAGGACCGGUACGGCCGCCACUCGAAGUCCUACGACAUGAGGAUCACCCAUGUA [Same State Trp A GF14] | 64.3 |
| GCAUCCUAGUCGGCCGCCACUGGAUGUACCCAGUGCUGGUACAAACAUGAGGAUCACCCAUGUACCAGGACCGGGACUAGGAUGC [(Trp1)-(MT2)''-(T1)'-(MT2)'-(Ms2)-(Trp2)_Design3] | 12.7 |
| AAUAGACAUGAGGAUCACCCAUGUAUGGAAGGAGCGGUGAAUAAACCAGGUAGGUCGCCAGUGUGAGGGUCAUCUAUGUAAUAAA [#18 Exclusion - Arginine A] | 49 |
| AUGCACAUCAGAAGGAGCGUCUUGGCCAAUCUAGGCCAACAUGAGGAUCACCCAUGUGCAGGACAGGUAGGUCGCUGAUGUGUAG [Arg B SS t8] | 12.3 |
| AUACAUGAGGAUCACCCAUGUUAUAGUGAAGGAGCGACAUUUAUGUCAGGUAGGUCGCACUAAAGUUUAAUAAUUCUUUGAUCUU [JR_SSArginiA_Sub011] | 15.7 |
| ACGCUGAUUGAUUACAAUCAGCGAAAAGAUACCAGCCUGGAUAUCGGCCCUUGGCAGCUUAAACCUGAGGAUCACCCUGGUAAAA [TheoAS 13 #MS2Right #BothOrNeither #AlternativeMS2] | 93.6 |
| GACUGUAAAAUAUGACUCAGGGUGACGUCCCGAGGACCGGUACGGCCGCCACUCGAGCGAAUACAUGAGGAUCACCCAUGUAGUC [theeternabot_exclusion_MS2_Trp_A_15] | 45.4 |
| CUAUAUGGAAACAUAUAGACGCAAAAGCGACGAGGACCGGUACGGCCGCCACUCGAAGAGUGGUGGACAUGAGGAUCACCCAUGU [Design 3 MOD] | 54.6 |
| CAAUGCAGGUCGGCCGCCACUACACACAUGAGGAUCACCCAUGUAGUUACUGGGUGAAGUGGCAGUAGGACCGGGACCUGCAUAC [Brourdmod03] | 290 |
| UGUAUGGACUGAAGGAGCGGGUAAUAAAUCUGAGGAUCACCCAGGUAAUAGGCGAAAGCCACCCAGGUAGGUCGCAGUCCAUACU | 19 |
| AAUAACAUGAGGAUCACCCAUGUAACCGAAGGAGCGGCAAUAAAGCCAGGUAGGUCGCGGAAUAACAUGAGGAUCACCCAUGUAA [Exclusion Arginine A] | 138 |
| AAAAUCCUACCUGAGGAUCACCCUGGUGAAGGAGCGCCCGAAAGGGCAGGUAGGUCGCACCUGAGGAUCACCCAGGUAACCUAAA [ArgEX 13 #DoubleMS2 #OpenEnded #AlternativeMS2] | 49.2 |
| GGCCUGUGGAGCGAUACCAGCUUGAGUGUACUGGCCAGGUACAUGAGGAUCACCCAUGUAAGCCCUUGGCAGCGCUCCAGAGGCC [#1 Exclusion - Theophylline B Attempt #18 (HarryS)] | 12.1 |

Same assay, conditions: Eterna round: R107; input ligand: theophylline 20 uM

| Sequence | apparent KD of MS2 coat protein [nM] |
| --- | --- |
| AAUAGUCCUCGACAUGAGGAUCACCCAUGUCGAGGACCGGUACGGCCGCCACUCGACAUGAGGAUCACCCAUGUUGAGUGAUAAA [prototype 1] | 8.26 |
| GUCCUCAUGACGGCCGCCACUAAACAUGAGGAUCACCCAUGUAAUGAUCCAUUAAAUGAUAAUAGUAGGACCGGGUCAAAAUAAA [Same State Typptophan B GF11] | 833 |
| CGCUACGUAACUGAUACCAGUGUACUGACAUGAGGAUCACCCAUGUUGGGUUUUGUUGUACACCCUUGGCAGCAGAAUCGUAGCG [AstrosExyTheB#13] | 79.2 |
| UGGUUUGUGAUGGAUACCAGCAGAGAAAACGUUUAUCCUAACAUGAGGAUCACCCAUGUAUGCCCUUGGCAGCUGUUGUGGGCUG [8.T] | 49.5 |
| AUAAGUAAUGUUUCGUGUUUUAUUACAGAUACCAGACUAUACGUUGUCCCUUGGCAGCUGGAUUACAUGAGGAUCACCCAUGUUG [JR_ExcTheophyA_Sub003] | 26.5 |
| UUCUACGACGAUCUGGGAAAACCAGAUCGACGAGGACCGGUACGGCCGCCACUCGUGUUUCUUUAACAUGAGGAUCACCCAUGUA [#12 Tryptophan A Same State] | 28 |
| GGUCUCUGGAGCGAUACCAGCUUGAUCGUACUGGCCUGGUACAUGAGGAUCACCCAUGUAAGCCCUUGGCAGCGCUCCAGAGACC [#1 Exclusion - Theophylline B Attempt #8 (HarryS)] | 16.3 |
| UUUGAUAGGACAGAUACCAGCGUGUUGUUGAACAUGAGGAUCACCCAUGUAGUGAUCAGGCGCCCUUGGCAGCUGGUUUGUUAGG [7.N] | 363 |
| ACGCCCAGGUAGGCUUAAUGGGAAAUGGAAGGAGCGCUGAUGCAAGCAGGUAGGUCGCCAACGAACAUGAGGAUCACCCAUGUAA [Same State - Arginine A (Freestyle 2)] | 28.2 |
| GCUGCAGCUACGGCCGCCACUGUUACGUGAGACAUGAGGAUCACCCAUGUUGAUGUUUUACAGAAUAGGACCGGGUAGUUGUAGU [E 1.1] | 11.3 |
| UACAUGAGGAUCACCCAUGUAUGAAUGGAUACCAGAUAAAAUAAGGUCCCUUGGCAGCUAGUGAAUCGAGGGUGGGUAUCAUGAU [#13 Exclusion-TheophyllineA] | 12.8 |
| ACGGAGAUGUCGGCCGCCACUGAACUCAUGUUCAACAUGAGGAUCACCCAUGUACCUUAGUUUAUCAGGACCGGGACAUAUACGA [JR_ExcTryptoB_Sub003] | 170 |
| GGGUUACUCUAUGAUACCAGUUCCAUGCCGAAACCUGUGUACAUGAGGAUCACCCAUGUGAACCCUUGGCAGCAUUAAUCAACUG [theeternabot_exclusion_MS2_Theo_B_35] | 163 |
| UGUACCAUGUCGGCCGCCACUCAUGAUAAACAUGAGGAUCACCCAUGUGGCGUCAAAGACGCUAUGAGGACCGGGACAUGGUACU [TryBS Zipper 3 #StaticStem #Zipper] | 19.9 |
| AACACGGUGAUGGUAGCCGGACGCUAGGUACGAGGACCGGUACGGCCGCCACUCGAAGUCCUACGACAUGAGGAUCACCCAUGUA [Same State Trp A GF14] | 89.2 |
| GCAUCCUAGUCGGCCGCCACUGGAUGUACCCAGUGCUGGUACAAACAUGAGGAUCACCCAUGUACCAGGACCGGGACUAGGAUGC [(Trp1)-(MT2)''-(T1)'-(MT2)'-(Ms2)-(Trp2)_Design3] | 16.4 |
| AAUAGACAUGAGGAUCACCCAUGUAUGGAAGGAGCGGUGAAUAAACCAGGUAGGUCGCCAGUGUGAGGGUCAUCUAUGUAAUAAA [#18 Exclusion - Arginine A] | 63.3 |
| GAUGAUAUUGCAGAUACCAGACACAUGAGGAUCACCCAUGUCGCUGAGAUGCUGGAUCGUGUCCCUUGGCAGCUGCGAUAUCAUC [Brazil] | 106 |
